These results are taken from article PMC3401230, “The Crystal Structures of Dystrophin and Utrophin Spectrin Repeats: Implications for Domain Boundaries” (PLoS ONE, 2012).

This series deals with the molecule itself. Description: SEC; Superdex 75 HR 30/10; Utr-SR1 in 20 mM Tris pH 8.0, 50 mM NaCl; Dys-SR1 in PBS; no DTT added. A general note: In gel filtration, larger molecules generally elute earlier.

B1: Dystrophin N-terminal (repeat 1) spectrin repeat (domain or fragment, human, UniProt P11532 338-456, looked up)
chain: EVNLDRYQTALEEVLSWLLSAEDTLQAQGEISNDVEVVKDQFHTHEGYMMDLTAHQGRVGNILQLGSKLIGTGKLSEDEETEVQEQMNLLNSRWECLRVASMEKQSNLHRVLMDLQNQK
notes: dystrophin, human, residues 338-456 (first spectrin repeat); Without a reducing agent part of the protein is a dimer linked by a disulphide bond between C433 of each molecule; The model in PDB 3UUN holds residues 338-453 (monomer A) and 339-452 (monomer B); Tag and cleavage are told only as 'prepared in an equivalent manner' to Utr-SR1; also called Dys-SR1; source: E. coli BL21(DE3), purified in …
For B1, the binding result is recorded as “binds”.
